The values that follow come from PMC5571166, “Mapping the key residues of SufB and SufD essential for biosynthesis of iron-sulfur clusters” (Scientific Reports, 2017).

B1: SufD (natural protein, Escherichia coli)
chain: MAGLPNSSNALQQWHHLFEAEGTKRSPQAQQHLQQLLRTGLPTRKHENWKYTPLEGLINSQFVSIAGEISPQQRDALALTLDSVRLVFVDGRYVPALSDATEGSGYEVSINDDRQGLPDAIQAEVFLHLTESLAQSVTHIAVKRGQRPAKPLLLMHITQGVAGEEVNTAHYRHHLDLAEGAEATVIEHFVSLNDARHFTGARFTINVAANAHLQHIKLAFENPLSHHFAHNDLLLAEDATAFSHSFLLGGAVLRHNTSTQLNGENSTLRINSLAMPVKNEVCDTRTWLEHNKGFCNSRQLHKTIVSDKGRAVFNGLINVAQHAIKTDGQMTNNNLLMGKLAEVDTKPQLEIYADDVKCSHGATVGRIDDEQIFYLRSRGINQQDAQQMIIYAFAAELTEALRDEGLKQQVLARIGQRLPGGAR
notes: SufD of the Escherichia coli sufABCDSE operon; One SufD per SufBCD complex (1:2:1); also called SufD subunit of the SufBCD complex
B2: SufC (natural protein, Escherichia coli)
chain: MLSIKDLHVSVEDKAILRGLSLDVHPGEVHAIMGPNGSGKSTLSATLAGREDYEVTGGTVEFKGKDLLALSPEDRAGEGIFMAFQYPVEIPGVSNQFFLQTALNAVRSYRGQETLDRFDFQDLMEEKIALLKMPEDLLTRSVNVGFSGGEKKRNDILQMAVLEPELCILDESDSGLDIDALKVVADGVNSLRDGKRSFIIVTHYQRILDYIKPDYVHVLYQGRIVKSGDFTLVKQLEEQGYGWLTEQQ
notes: SufC of the Escherichia coli sufABCDSE operon; also called SufC subunit of the SufBCD complex

One assay deals with T1, SufB^R226A (Escherichia coli, UniProt P77522 1-495, SufB^R226A).
T1 construct: SufB of the Escherichia coli sufABCDSE operon
T1 sequence: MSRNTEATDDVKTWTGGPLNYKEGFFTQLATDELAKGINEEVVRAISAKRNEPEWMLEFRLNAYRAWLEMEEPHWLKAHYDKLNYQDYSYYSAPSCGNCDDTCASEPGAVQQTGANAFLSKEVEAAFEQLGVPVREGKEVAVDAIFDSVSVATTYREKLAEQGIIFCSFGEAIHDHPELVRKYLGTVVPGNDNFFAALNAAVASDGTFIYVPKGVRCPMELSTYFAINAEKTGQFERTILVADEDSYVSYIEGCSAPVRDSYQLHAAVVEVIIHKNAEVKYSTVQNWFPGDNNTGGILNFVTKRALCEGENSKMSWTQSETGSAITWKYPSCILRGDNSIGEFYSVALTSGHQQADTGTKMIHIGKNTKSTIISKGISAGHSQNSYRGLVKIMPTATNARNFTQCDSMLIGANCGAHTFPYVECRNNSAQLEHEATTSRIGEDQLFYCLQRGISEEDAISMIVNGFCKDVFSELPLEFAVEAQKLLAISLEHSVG
The experiment in a line: SEC; SufBCD complexes co-expressed in E. coli and co-purified on Phenyl FF, Q XL and Sephacryl S-200; eluted from gel filtration at about 160 kDa; subunit composition checked by SDS-PAGE of the purified sample. The note with it: both partners purified. Background: Size exclusion chromatography separates by hydrodynamic size, large species first.

For the assay “SufD”, the target named is B1. Described as above. The note with it: both partners purified.

B1: the binding result with SufB^R226A is listed as “binds”.

As for B2, the binding result with SufD and with SufB^R226A was “binds” throughout.
